Source: publication PMC3098285

Molecular target: T1, His-PhoP (Salmonella enterica serovar Typhimurium (strain SL1344?)) (UniProt E1WFA1)
T1 sequence: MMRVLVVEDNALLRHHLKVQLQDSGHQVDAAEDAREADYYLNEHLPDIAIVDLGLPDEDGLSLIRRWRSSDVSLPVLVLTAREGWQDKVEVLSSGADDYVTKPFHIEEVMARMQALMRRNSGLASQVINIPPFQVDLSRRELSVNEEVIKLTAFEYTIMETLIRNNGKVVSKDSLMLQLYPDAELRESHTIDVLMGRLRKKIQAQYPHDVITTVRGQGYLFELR
Assay: EMSA
Settings: 20 mM HEPES pH 7.6, 1 mM EDTA, 10 mM (NH4)2SO4, 5 mM DTT, 0.2% Tween 20, 30 mM KCl, 0.1 ug poly-L-lysine, 1 ug poly(dI-dC), 50 mM acetyl phosphate, 37 C …

With “CGCTCACCTCTTCTGTATATAAGCTGTGAAATTGCGGTATGCTCAATCGGTAAAGTGAATTTACACATATATTCATTTTGCTCTGTTTCCTGGTAAGTGAAAGTAGCGAATATGATGTAATGTATAATT (double strand) [sseL promoter 128-bp fragment]” the binding was “binds”.
